Test results as given in the supplement of paper PMC11316812.
± gives the standard deviation of the averaged measurements.

How the values were obtained:
hTERT-HMEC = assay: percentage of EdU-negative (G0-arrested) nuclei per well, 72 h; higher = more G0 arrest; conditions: reference: sequence is the full UniProt precursor, the tested protein was the secreted form or ectodomain
MCF7 = assay: as above; conditions: reference: sequence is the full UniProt precursor, the tested protein was the secreted form or ectodomain
[1] = protein concentration 0.03125 µM
[2] = protein concentration 0.3125 µM
[3] = protein concentration 0.0225 µM
[4] = protein concentration 0.0125 µM
[5] = protein concentration 0.0105714 µM
[6] = protein concentration 0.105714 µM
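Further: secreted proteins added to cultured cells, EdU pulse at the end, nuclei found by Hoechst imaging, EdU status from nuclear versus surrounding ring intensity ratio, PBS as neutral control.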

| Sequence | percentage of EdU-negative (hTERT-HMEC; [3]) | percentage of EdU-negative (hTERT-HMEC; protein concentration 0.225 µM) | percentage of EdU-negative (MCF7; [3]) | percentage of EdU-negative (MCF7; protein concentration 0.225 µM) | other results |
| --- | --- | --- | --- | --- | --- |
| MVLAAPLLLGFLLLALELRPRGEAAEGPAAAAAAAAAAAAAGVGGERSSRPAPSVAPEPDGCPVCVWRQHSRELRLESIKSQILSKLRLKEAPNISREVVKQLLPKAPPLQQILDLHDFQGDALQPEDFLEEDEYHATTETVISMAQETDPAVQTDGSPLCCHFHFSPKVMFTKVLKAQLWVYLRPVPRPATVYLQILRLKPLTGEGTAGGGGGGRRHIRIRSLKIELHSRSGHWQSIDFKQVLHSWFRQPQSNWGIEINAFDPSGTDLAVTSLGPGAEGLHPFMELRVLENTKRSRRNLGLDCDEHSSESRCCRYPLTVDFEAFGWDWIIAPKRYKANYCSGQCEYMFMQKYPHTHLVQQANPRGSAGPCCTPTKMSPINMLYFNDKQQIIYGKIPGMVVDRCGCS |  |  |  |  | percentage of EdU-negative (hTERT-HMEC; [1]): 4.52 ± 0.24%; percentage of EdU-negative (hTERT-HMEC; [2]): 5.2 ± 0.9%; percentage of EdU-negative (MCF7; [1]): 24.2 ± 2.7%; percentage of EdU-negative (MCF7; [2]): 26.2 ± 3.2% |
| MVLAQGLLSMALLALCWERSLAGAEETIPLQTLRCYNDYTSHITCRWADTQDAQRLVNVTLIRRVNEDLLEPVSCDLSDDMPWSACPHPRCVPRRCVIPCQSFVVTDVDYFSFQPDRPLGTRLTVTLTQHVQPPEPRDLQISTDQDHFLLTWSVALGSPQSHWLSPGDLEFEVVYKRLQDSWEDAAILLSNTSQATLGPEHLMPSSTYVARVRTRLAPGSRLSGRPSKWSPEVCWDSQPGDEAQPQNLECFFDGAAVLSCSWEVRKEVASSVSFGLFYKPSPDAGEEECSPVLREGLGSLHTRHHCQIPVPDPATHGQYIVSVQPRRAEKHIKSSVNIQMAPPSLNVTKDGDSYSLRWETMKMRYEHIDHTFEIQYRKDTATWKDSKTETLQNAHSMALPALEPSTRYWARVRVRTSRTGYNGIWSEWSEARSWDTESVLPMWVLALIVIFLTIAVLLALRFCGIYGYRLRRKWEEKIPNPSKSHLFQNGSAELWPPGSMSAFTSGSPPHQGPWGSRFPELEGVFPVGFGDSEVSPLTIEDPKHVCDPPSGPDTTPAASDLPTEQPPSPQPGPPAASHTPEKQASSFDFNGPYLGPPHSRSLPDILGQPEPPQEGGSQKSPPPGSLEYLCLPAGGQVQLVPLAQAMGPGQAVEVERRPSQGAAGSPSLESGGGPAPPALGPRVGGQDQKDSPVAIPMSSGDTEDPGVASGYVSSADLVFTPNSGASSVSLVPSLGLPSDQTPSLCPGLASGPPGAPGPVKSGFEGYVELPPIEGRSPRSPRNNPVPPEAKSPVLNPGERPADVSPTSPQPEGLLVLQQVGDYCFLPGLGPGPLSLRSKPSSPGPGPEIKNLDQAFQVKKPPGQAVPQVPVIQLFKALKQQDYLSLPPWEVNKPGEVC | 4.92 ± 0.4% | 8.11 ± 1.6% | 23.9 ± 0.89% | 26.4 ± 2.5% |  |
| MVLCFPLLLLLLVLWGPVCPLHAWPKRLTKAHWFEIQHIQPSPLQCNRAMSGINNYTQHCKHQNTFLHDSFQNVAAVCDLLSIVCKNRRHNCHQSSKPVNMTDCRLTSGKYPQCRYSAAAQYKFFIVACDPPQKSDPPYKLVPVHLDSIL | 4.8 ± 0.73% | 7.49 ± 1.4% | 25.2 ± 2.5% | 25 ± 4.7% |  |
| MVLCWLLLLVMALPPGTTGVKDCVFCELTDSMQCPGTYMHCGDDEDCFTGHGVAPGTGPVINKGCLRATSCGLEEPVSYRGVTYSLTTNCCTGRLCNRAPSSQTVGATTSLALGLGMLLPPRLL [Q8TDM5] | 4.81 ± 0.12% | 5.43 ± 0.73% | 27.6 ± 0.57% | 25.47 ± 0.088% |  |
| MVLLLLVAIPLLVHSSRGPAHYEMLGRCRMVCDPHGPRGPGPDGAPASVPPFPPGAKGEVGRRGKAGLRGPPGPPGPRGPPGEPGRPGPPGPPGPGPGGVAPAAGYVPRIAFYAGLRRPHEGYEVLRFDDVVTNVGNAYEAASGKFTCPMPGVYFFAYHVLMRGGDGTSMWADLMKNGQVRASAIAQDADQNYDYASNSVILHLDVGDEVFIKLDGGKVHGGNTNKYSTFSGFIIYPD [Q86Z23] |  |  |  |  | percentage of EdU-negative (hTERT-HMEC; [4]): 4.79 ± 0.17%; percentage of EdU-negative (hTERT-HMEC; protein concentration 0.125 µM): 6.46 ± 0.13%; percentage of EdU-negative (MCF7; [4]): 23.6 ± 0.38%; percentage of EdU-negative (MCF7; protein concentration 0.125 µM): 27.2 ± 2.1% |
| MVLLRVLILLLSWAAGMGGQYGNPLNKYIRHYEGLSYNVDSLHQKHQRAKRAVSHEDQFLRLDFHAHGRHFNLRMKRDTSLFSDEFKVETSNKVLDYDTSHIYTGHIYGEEGSFSHGSVIDGRFEGFIQTRGGTFYVEPAERYIKDRTLPFHSVIYHEDDINYPHKYGPQGGCADHSVFERMRKYQMTGVEEVTQIPQEEHAANGPELLRKKRTTSAEKNTCQLYIQTDHLFFKYYGTREAVIAQISSHVKAIDTIYQTTDFSGIRNISFMVKRIRINTTADEKDPTNPFRFPNIGVEKFLELNSEQNHDDYCLAYVFTDRDFDDGVLGLAWVGAPSGSSGGICEKSKLYSDGKKKSLNTGIITVQNYGSHVPPKVSHITFAHEVGHNFGSPHDSGTECTPGESKNLGQKENGNYIMYARATSGDKLNNNKFSLCSIRNISQVLEKKRNNCFVESGQPICGNGMVEQGEECDCGYSDQCKDECCFDANQPEGRKCKLKPGKQCSPSQGPCCTAQCAFKSKSEKCRDDSDCAREGICNGFTALCPASDPKPNFTDCNRHTQVCINGQCAGSICEKYGLEECTCASSDGKDDKELCHVCCMKKMDPSTCASTGSVQWSRHFSGRTITLQPGSPCNDFRGYCDVFMRCRLVDADGPLARLKKAIFSPELYENIAEWIVAHWWAVLLMGIALIMLMAGFIKICSVHTPSSNPKLPPPKPLPGTLKRRRPPQPIQQPQRQRPRESYQMGHMRR |  |  |  |  | percentage of EdU-negative (hTERT-HMEC; [5]): 6.02 ± 1.1%; percentage of EdU-negative (hTERT-HMEC; [6]): 6.36 ± 1.3%; percentage of EdU-negative (MCF7; [5]): 24.8 ± 1.8%; percentage of EdU-negative (MCF7; [6]): 26.2 ± 1.3% |
